The experiment addresses T1, HLA-A*03:01 (human).
T1 construct: MHC class I monomer first loaded with a UV-sensitive peptide that is cleaved by UV irradiation and exchanged for the test peptide; captured on streptavidin plates; also called peptide-receptive MHC molecules
The experiment can be described thus: UV-ligand exchange, anti-b2m ELISA; peptide exchange yield grade (>10% +, >20% ++, >50% +++, >75% ++++). The source says: Candidate peptides for T cell based therapies according to the present invention were further tested for their MHC binding capacity (affinity). The individual peptide-MHC complexes were produced by UV-ligand exchange, where a UV-sensitive peptide is cleaved upon UV-irradiation and exchanged with the peptide of interest as analyzed. Only peptide candidates that can effectively bind and stabilize the peptide-receptive MHC molecules prevent dissociation of the MHC complexes. To determine the yield of the exchange reaction, an ELISA was performed based on the detection of the light chain (β2m) of stabilized MHC complexes. The assay was performed as generally described in Rodenko et al. (Rodenko et al., 2006)
96 well MAXISorp plates (NUNC) were coated over night with 2 ug/ml streptavidin in PBS at room temperature, washed 4× and blocked forl h at 37° C. in 2% BSA containing blocking buffer. Refolded HLA-A*02:01/MLA-001 monomers served as standards, covering the range of 15-500 ng/ml. Peptide-MHC monomers of the UV-exchange reaction were diluted 100-fold in blocking buffer. Samples were incubated for 1 h at 37° C., washed four times, incubated with 2 ug/ml HRP conjugated anti-β2m for 1 h at 37° C., washed again and detected with TMB solution that is stopped with […]. Absorption was measured at 450 nm.

The text below walks through data of patent US20200000897A1 (published 2020).

B1: RVYPHKTLY (peptide)
peptide: RVYPHKTLY
In turn, B1 returned a peptide exchange yield of 50 to 75%.

B2: SLLKPSGDYFK (peptide)
peptide: SLLKPSGDYFK
Take B2: the peptide exchange yield was in the range of 50 to 75%.

B3: SIYKKAVYR (peptide)
peptide: SIYKKAVYR
B3 had a peptide exchange yield of over 75%.

B4: RLRDYISSLK (peptide)
peptide: RLRDYISSLK
On to B4, for which the peptide exchange yield was over 75%.

B5: LIGPLLICK (peptide)
peptide: LIGPLLICK
The molecule B5 gave a peptide exchange yield of over 75%.

B6: RLLPGKVVWK (peptide)
peptide: RLLPGKVVWK
In turn, B6 came in with a peptide exchange yield of over 75%.

B7: RLAQYTIER (peptide)
peptide: RLAQYTIER
Consider B7, for which the peptide exchange yield is over 75%.

B8: TVYVAMCHKF (peptide)
peptide: TVYVAMCHKF
In turn, B8 showed a peptide exchange yield of over 75%.

B9: TLLSYELAFK (peptide)
peptide: TLLSYELAFK
For the molecule B9, the peptide exchange yield is over 75%.

B10: KTLGKIAEK (peptide)
peptide: KTLGKIAEK
Consider B10, for which the peptide exchange yield is over 75%.

B11: TVFVELWLK (peptide)
peptide: TVFVELWLK
As for B11, the peptide exchange yield is 20 to 50%.

B12: TRMQKAGFLYY (peptide)
peptide: TRMQKAGFLYY
Molecule B12 returned a peptide exchange yield of 20 to 50%.

B13: VVYDTMIEKF (peptide)
peptide: VVYDTMIEKF
B13 showed a peptide exchange yield of over 75%.

B14: ALARVSSVKL (peptide)
peptide: ALARVSSVKL
As to B14, the peptide exchange yield fell in the range of 50 to 75%.

B15: KVLTRNIEY (peptide)
peptide: KVLTRNIEY
For the molecule B15, the peptide exchange yield fell in the range of 50 to 75%.

B16: SPRVYWLGLNDR (peptide)
peptide: SPRVYWLGLNDR
The molecule B16 displayed a peptide exchange yield of 10 to 20%.

B17: VSLGIAVSK (peptide)
peptide: VSLGIAVSK
Consider B17, for which the peptide exchange yield was 20 to 50%.

B18: ATSPPASVR (peptide)
peptide: ATSPPASVR
B18: the peptide exchange yield is over 75%.

B19: LLLAAVTVK (peptide)
peptide: LLLAAVTVK
Molecule B19 displayed a peptide exchange yield of 20 to 50%.

B20: RLYAPVVNISRL (peptide)
peptide: RLYAPVVNISRL
In the case of B20, the peptide exchange yield is 50 to 75%.

B21: ASLAAAVLAK (peptide)
peptide: ASLAAAVLAK
B21: the peptide exchange yield fell in the range of 50 to 75%.

B22: ALSRMSQQY (peptide)
peptide: ALSRMSQQY
As for B22, the peptide exchange yield was over 75%.

B23: VSLSKMLKK (peptide)
peptide: VSLSKMLKK
For B23, the peptide exchange yield fell in the range of 50 to 75%.

B24: PLAMLAATCNK (peptide)
peptide: PLAMLAATCNK
The molecule B24 gave a peptide exchange yield of 20 to 50%.

B25: SLLEADPFLK (peptide)
peptide: SLLEADPFLK
B25 showed a peptide exchange yield of 50 to 75%.

B26: TIASVLVAR (peptide)
peptide: TIASVLVAR
Turning to B26, the peptide exchange yield is 20 to 50%.

B27: RVDSKQRYY (peptide)
peptide: RVDSKQRYY
For B27, the peptide exchange yield was over 75%.

B28: VSIRNTLLY (peptide)
peptide: VSIRNTLLY
B28 came in with a peptide exchange yield of 10 to 20%.

B29: AATIISSAK (peptide)
peptide: AATIISSAK
Molecule B29 displayed a peptide exchange yield of 10 to 20%.

B30: ASSFRPLLSK (peptide)
peptide: ASSFRPLLSK
Consider B30, for which the peptide exchange yield was 50 to 75%.

B31: VVYDTMIEK (peptide)
peptide: VVYDTMIEK
Take B31: the peptide exchange yield lay within 50 to 75%.

B32: IIFIPATILLK (peptide)
peptide: IIFIPATILLK
As to B32, the peptide exchange yield is over 75%.

B33: ILNLNKMVK (peptide)
peptide: ILNLNKMVK
With B33, the peptide exchange yield fell in the range of 50 to 75%.

B34: VSYNRLIK (peptide)
peptide: VSYNRLIK
In the case of B34, the peptide exchange yield is 50 to 75%.

B35: SLRGSFPILY (peptide)
peptide: SLRGSFPILY
Take B35: the peptide exchange yield was in the range of 10 to 20%.

B36: ATNGKVLKKR (peptide)
peptide: ATNGKVLKKR
Molecule B36 showed a peptide exchange yield of over 75%.

B37: AVVQGLVEK (peptide)
peptide: AVVQGLVEK
As for B37, the peptide exchange yield lay within 20 to 50%.

B38: GLAAGALLLY (peptide)
peptide: GLAAGALLLY
B38 had a peptide exchange yield of 20 to 50%.

B39: SLLTVSGAWAK (peptide)
peptide: SLLTVSGAWAK
In turn, B39 yielded a peptide exchange yield of over 75%.

B40: SLFEGIYTIK (peptide)
peptide: SLFEGIYTIK
Molecule B40 yielded a peptide exchange yield of over 75%.

B41: GGLSSQGVYY (peptide)
peptide: GGLSSQGVYY
B41 yielded a peptide exchange yield of 20 to 50%.

B42: KVFAEHKISY (peptide)
peptide: KVFAEHKISY
For B42, the peptide exchange yield was in the range of 50 to 75%.

B43: KIKKPLSYR (peptide)
peptide: KIKKPLSYR
Regarding B43, the peptide exchange yield was over 75%.

B44: ATIGLSVSK (peptide)
peptide: ATIGLSVSK
The molecule B44 showed a peptide exchange yield of over 75%.

B45: KIICGVHYLY (peptide)
peptide: KIICGVHYLY
B45 displayed a peptide exchange yield of 10 to 20%.

B46: VAFFVLPSK (peptide)
peptide: VAFFVLPSK
As for B46, the peptide exchange yield was in the range of 20 to 50%.

B47: ATNGKVLKK (peptide)
peptide: ATNGKVLKK
As for B47, the peptide exchange yield is over 75%.

B48: KLQNLPTLLY (peptide)
peptide: KLQNLPTLLY
Regarding B48, the peptide exchange yield fell in the range of 50 to 75%.

B49: RMGFRTLSK (peptide)
peptide: RMGFRTLSK
The molecule B49 returned a peptide exchange yield of over 75%.

B50: AVAFFVLPSK (peptide)
peptide: AVAFFVLPSK
Molecule B50 returned a peptide exchange yield of over 75%.

B51: MLYYPSVSR (peptide)
peptide: MLYYPSVSR
Regarding B51, the peptide exchange yield was over 75%.

B52: QVLDLQSVK (peptide)
peptide: QVLDLQSVK
With B52, the peptide exchange yield was in the range of 20 to 50%.

B53: TVFLSKYLKK (peptide)
peptide: TVFLSKYLKK
With B53, the peptide exchange yield was 50 to 75%.

B54: MKTLPAMLGTGK (peptide)
peptide: MKTLPAMLGTGK
Regarding B54, the peptide exchange yield lay in the range of 20 to 50%.

B55: LASSPAGHK (peptide)
peptide: LASSPAGHK
In turn, B55 gave a peptide exchange yield of 50 to 75%.

B56: RALGVPFVPR (peptide)
peptide: RALGVPFVPR
B56 came in with a peptide exchange yield of over 75%.

B57: LLRSGLTLR (peptide)
peptide: LLRSGLTLR
B57 came in with a peptide exchange yield of 20 to 50%.

B58: AILHPFRAK (peptide)
peptide: AILHPFRAK
With B58, the peptide exchange yield is 50 to 75%.

B59: KVASFTVIGY (peptide)
peptide: KVASFTVIGY
In the case of B59, the peptide exchange yield fell in the range of 50 to 75%.

B60: KLFMPRPK (peptide)
peptide: KLFMPRPK
In turn, B60 displayed a peptide exchange yield of 50 to 75%.

B61: RIGNKGIYK (peptide)
peptide: RIGNKGIYK
Turning to B61, the peptide exchange yield lay within 50 to 75%.
